The values below come from patent US20160200782A1 (MOERAE MATRIX, published 2016).

What all share (test): cell-based or functional assay
The target of experiment [1] is PKCτ(h) (human).
In experiment [2] the target is T1, GCK(h) (human, UniProt Q12851 1-820, limits assumed).
T1 sequence (looked up): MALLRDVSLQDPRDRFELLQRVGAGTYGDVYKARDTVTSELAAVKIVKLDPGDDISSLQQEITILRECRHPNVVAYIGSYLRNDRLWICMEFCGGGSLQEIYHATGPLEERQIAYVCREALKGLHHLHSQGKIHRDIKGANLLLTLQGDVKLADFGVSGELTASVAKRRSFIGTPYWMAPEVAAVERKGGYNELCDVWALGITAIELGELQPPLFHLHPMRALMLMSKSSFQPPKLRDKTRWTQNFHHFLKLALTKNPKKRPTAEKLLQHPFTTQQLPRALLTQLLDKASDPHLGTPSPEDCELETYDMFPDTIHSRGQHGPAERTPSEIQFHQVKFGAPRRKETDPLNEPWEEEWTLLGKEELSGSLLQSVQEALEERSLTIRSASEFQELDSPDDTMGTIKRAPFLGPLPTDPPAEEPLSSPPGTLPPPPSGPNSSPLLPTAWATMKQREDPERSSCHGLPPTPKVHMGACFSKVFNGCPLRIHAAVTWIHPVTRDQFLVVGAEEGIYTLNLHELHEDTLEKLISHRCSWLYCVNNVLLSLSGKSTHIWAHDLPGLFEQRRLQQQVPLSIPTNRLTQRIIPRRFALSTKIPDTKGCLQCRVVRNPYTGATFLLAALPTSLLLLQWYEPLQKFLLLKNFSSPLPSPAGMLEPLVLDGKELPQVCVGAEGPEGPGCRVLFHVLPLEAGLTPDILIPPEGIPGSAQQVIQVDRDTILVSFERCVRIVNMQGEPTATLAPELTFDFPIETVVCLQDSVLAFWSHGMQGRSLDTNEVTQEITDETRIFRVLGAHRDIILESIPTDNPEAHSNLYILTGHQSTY

In experiment [3] the target is T2, MRCKβ(h) (human, UniProt Q9Y5S2 1-473, limits assumed).
T2 sequence (looked up): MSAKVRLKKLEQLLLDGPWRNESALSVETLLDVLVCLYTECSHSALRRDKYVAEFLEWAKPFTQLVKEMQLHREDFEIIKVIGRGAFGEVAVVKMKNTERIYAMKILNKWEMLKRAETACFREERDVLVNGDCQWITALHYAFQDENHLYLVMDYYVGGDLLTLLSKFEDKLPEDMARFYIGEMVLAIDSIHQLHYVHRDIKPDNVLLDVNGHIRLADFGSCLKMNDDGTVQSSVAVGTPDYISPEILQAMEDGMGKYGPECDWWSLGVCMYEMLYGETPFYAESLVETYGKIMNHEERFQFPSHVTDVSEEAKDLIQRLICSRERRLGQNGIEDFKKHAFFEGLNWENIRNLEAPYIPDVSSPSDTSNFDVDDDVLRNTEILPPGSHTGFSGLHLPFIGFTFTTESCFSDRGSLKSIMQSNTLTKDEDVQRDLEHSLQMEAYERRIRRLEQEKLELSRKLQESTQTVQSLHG

Experiment [4] has as its target T3, ALK4(h) (human, UniProt P36896 150-505, limits assumed).
T3 sequence (looked up): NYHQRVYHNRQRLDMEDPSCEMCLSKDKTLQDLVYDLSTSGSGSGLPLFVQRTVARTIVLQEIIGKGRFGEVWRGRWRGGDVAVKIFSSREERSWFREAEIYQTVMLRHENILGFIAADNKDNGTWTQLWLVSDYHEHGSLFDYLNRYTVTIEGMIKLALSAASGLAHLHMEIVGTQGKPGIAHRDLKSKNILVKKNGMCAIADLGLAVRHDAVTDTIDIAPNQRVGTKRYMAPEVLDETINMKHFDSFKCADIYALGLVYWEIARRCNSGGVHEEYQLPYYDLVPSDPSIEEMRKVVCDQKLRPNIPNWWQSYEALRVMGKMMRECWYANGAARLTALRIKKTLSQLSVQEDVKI

The target of experiment [5] is T4, NLK(h) (human, UniProt Q9UBE8 1-527, limits assumed).
T4 sequence (looked up): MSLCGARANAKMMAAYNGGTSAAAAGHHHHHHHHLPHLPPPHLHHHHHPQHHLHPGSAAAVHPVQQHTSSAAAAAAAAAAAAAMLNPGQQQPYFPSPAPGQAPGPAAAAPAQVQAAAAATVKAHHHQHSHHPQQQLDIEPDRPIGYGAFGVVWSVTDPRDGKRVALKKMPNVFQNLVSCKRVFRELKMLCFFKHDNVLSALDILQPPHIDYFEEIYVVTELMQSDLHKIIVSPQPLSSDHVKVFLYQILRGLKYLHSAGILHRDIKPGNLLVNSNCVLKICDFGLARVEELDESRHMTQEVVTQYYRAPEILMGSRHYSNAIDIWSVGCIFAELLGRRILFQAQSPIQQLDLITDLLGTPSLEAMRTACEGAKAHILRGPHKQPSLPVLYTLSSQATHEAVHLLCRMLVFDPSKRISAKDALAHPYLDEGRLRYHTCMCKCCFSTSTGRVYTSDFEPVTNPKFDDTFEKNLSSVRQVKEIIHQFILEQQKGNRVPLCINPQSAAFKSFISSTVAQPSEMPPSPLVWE

The target in experiment [6] is Fer(h) (human, UniProt P16591 541-822, limits assumed).
The target in experiment [7] is T5, TAO1(h) (human, UniProt Q7L7X3 1-320, limits assumed).
T5 sequence (looked up): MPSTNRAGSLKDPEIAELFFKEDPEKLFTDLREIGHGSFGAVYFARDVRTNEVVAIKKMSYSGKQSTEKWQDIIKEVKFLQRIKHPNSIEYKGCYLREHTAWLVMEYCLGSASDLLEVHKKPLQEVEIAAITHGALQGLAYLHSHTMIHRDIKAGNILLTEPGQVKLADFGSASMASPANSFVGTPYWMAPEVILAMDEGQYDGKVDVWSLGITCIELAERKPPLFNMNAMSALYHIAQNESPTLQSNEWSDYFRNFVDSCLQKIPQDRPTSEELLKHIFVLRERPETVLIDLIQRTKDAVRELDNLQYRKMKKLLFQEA

In experiment [8] the target is PRK2(h) (human, UniProt Q16513 501-984, limits assumed).
Chain of PRK2(h) (Q16513 501-984 limits assumed): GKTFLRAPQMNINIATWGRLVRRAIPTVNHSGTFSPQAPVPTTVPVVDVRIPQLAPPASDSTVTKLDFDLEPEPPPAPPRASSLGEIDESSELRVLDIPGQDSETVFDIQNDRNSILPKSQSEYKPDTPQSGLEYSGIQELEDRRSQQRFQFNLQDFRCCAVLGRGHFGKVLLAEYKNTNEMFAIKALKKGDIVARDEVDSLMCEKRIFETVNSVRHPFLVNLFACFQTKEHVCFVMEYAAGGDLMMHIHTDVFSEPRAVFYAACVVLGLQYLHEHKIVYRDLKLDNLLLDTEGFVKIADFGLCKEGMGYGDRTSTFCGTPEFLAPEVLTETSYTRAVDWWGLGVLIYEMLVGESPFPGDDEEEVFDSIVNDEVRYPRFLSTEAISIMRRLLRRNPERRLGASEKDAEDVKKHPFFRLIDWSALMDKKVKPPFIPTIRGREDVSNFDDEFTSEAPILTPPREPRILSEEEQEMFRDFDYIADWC

Chain of Fer(h) (P16591 541-822 limits assumed): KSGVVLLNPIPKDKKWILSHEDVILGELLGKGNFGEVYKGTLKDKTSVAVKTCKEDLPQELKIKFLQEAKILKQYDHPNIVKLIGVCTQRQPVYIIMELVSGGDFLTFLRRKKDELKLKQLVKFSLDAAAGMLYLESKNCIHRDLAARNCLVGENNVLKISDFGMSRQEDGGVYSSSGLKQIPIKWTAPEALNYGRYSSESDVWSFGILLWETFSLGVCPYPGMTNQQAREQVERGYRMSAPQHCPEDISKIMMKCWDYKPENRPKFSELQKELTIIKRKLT

As to FAKLAARLYRKALARQLGVAA [MMI-0300], the “% activity” value in experiment [1] worked out at 68%; in experiment [2] it was 70%; in experiment [3], 83%; in experiment [4], 140%; in experiment [5], 87%; in experiment [6], 130%. For the same molecule, the results for the “% activity” value in experiment [7] and in experiment [8] were 82% and 33%, respectively.
In the case of KAFAKLAARLYRKALARQLGVAA [MMI-0400], the “% activity” value in experiment [1] worked out at 46%; in experiment [2], 66%; in experiment [3] it was 71%; in experiment [4], 130%; in experiment [5], 90%; in experiment [6], 108%. The “% activity” value was determined as 73% in experiment [7] and 27% in experiment [8].
